Source: publication doi:10.1101/2020.12.04.411645

Target: MBP-tagged full-length CYRI-A (mouse) (UniProt Q8BHZ0)
Assay: SPR

Sequence of MBP-tagged full-length CYRI-A (mouse) (Q8BHZ0 whole entry): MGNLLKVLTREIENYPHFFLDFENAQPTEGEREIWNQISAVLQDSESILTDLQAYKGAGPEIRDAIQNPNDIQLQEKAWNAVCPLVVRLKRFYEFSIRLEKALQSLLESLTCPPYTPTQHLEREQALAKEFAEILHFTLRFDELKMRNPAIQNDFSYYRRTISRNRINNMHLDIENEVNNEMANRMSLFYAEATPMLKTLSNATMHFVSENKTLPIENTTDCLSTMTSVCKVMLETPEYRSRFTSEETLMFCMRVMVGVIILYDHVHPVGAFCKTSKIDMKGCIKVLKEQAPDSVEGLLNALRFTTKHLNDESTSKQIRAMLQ

For “untagged full-length RAC1 Q61L (from UniProt P63000 1-192) (enzyme; other documents disagree on this pair)”, which Kd is on record?
The Kd was 2.47 µM.
